# Earlier results, collected in US20230002502A1, “METHODS AND PRODUCTS FOR REDUCING SIDE EFFECTS ASSOCIATED WITH USE OF IMMUNE AGONIST ANTIBODIES” (South Australian Health and Medical Research Institute …, priority 2019, published 2023).
# Entries after “also recorded” stand apart in the source; their conditions may differ. Where two headings read alike, the source gives them in different places.
# System: patients
# Details: for toxicity reported in clinical trials: patients
substance,measurement,setting,value
"urelumab: an anti-CD137 IAA, IgG4",clinical trial results at lower dose,"8 mg/patient, alone or in combination with anti-PD1",overall disappointing results
same,toxicity reported in clinical trials,,"severe dose-dependent liver toxicity; also recorded: high rates of dose dependent liver toxicity, resulting in several deaths"
same,toxicity reported in clinical trials,listed as Urelumab,severe (grade 3 and above) liver damage
